This note sets out measurements from WO2023028914A1 (dated 2023).

The assay concerns the target T1, human Her3-His recombinant protein (human, UniProt P21860 20-643).
T1 construct: Recombinant His-tagged human Her3; not shown: His tag
As to the kind of experiment: BLI (Fortebio Octet 96e), antibody loaded on AMC sensor, human Her3-His 100-3.13 nM in solution. In general terms: BLI is a label-free optical method that tracks binding on a fibre tip over time.

T1 sequence (P21860 20-643 limits assumed): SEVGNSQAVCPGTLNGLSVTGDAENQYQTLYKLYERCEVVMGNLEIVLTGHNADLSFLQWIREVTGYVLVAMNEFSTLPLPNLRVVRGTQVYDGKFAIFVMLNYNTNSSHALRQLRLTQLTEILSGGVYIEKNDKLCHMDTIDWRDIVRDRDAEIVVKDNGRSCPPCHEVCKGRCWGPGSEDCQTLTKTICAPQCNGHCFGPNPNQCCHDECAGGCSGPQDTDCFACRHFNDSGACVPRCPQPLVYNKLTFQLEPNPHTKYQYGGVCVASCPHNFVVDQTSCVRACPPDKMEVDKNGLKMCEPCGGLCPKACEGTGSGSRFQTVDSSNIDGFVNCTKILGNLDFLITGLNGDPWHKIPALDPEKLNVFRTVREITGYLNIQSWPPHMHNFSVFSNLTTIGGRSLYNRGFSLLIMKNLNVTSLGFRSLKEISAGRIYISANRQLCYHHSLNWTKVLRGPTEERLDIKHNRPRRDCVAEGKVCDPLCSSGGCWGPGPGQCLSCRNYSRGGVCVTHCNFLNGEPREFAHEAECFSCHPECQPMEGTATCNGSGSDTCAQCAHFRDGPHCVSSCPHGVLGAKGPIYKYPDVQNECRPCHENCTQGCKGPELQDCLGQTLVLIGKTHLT

B1: monoclonal antibody 2F8 (antibody, V domains shown)
VH: QVQLQQWGAGLLKPSETLSLTCAVYGGSFSGYYWSWIRQPPGKGLEWIGEINHSGSTNYNPSLKSRVTISVETSKNQFSLKLSSVTAADTAVYYCARDKWTWYFDLWGRGTLVTVSS
VL: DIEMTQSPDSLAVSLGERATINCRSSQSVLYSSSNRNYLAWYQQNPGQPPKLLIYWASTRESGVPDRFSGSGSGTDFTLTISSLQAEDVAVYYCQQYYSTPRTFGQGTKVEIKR
notes: also called 2F8-new; parental molecule 2F8
A word on the Kd: it is the concentration at which binding is half-saturated. In general, koff refers to the rate constant with which the complex falls apart. As usually defined, the kon is the rate constant with which the complex forms. For B1, the equilibrium dissociation constant (Kd) came to 2.43 nM, the off-rate constant (koff) was 0.000357 s⁻¹ and the kon was 147000 M⁻¹ s⁻¹.

B2: antibody 3F5 (light chain mutant 2F8-Lm1 combined with heavy chain 2F8-H-new) (antibody, human IgG1, kappa, V domains shown)
VH: QVQLQQWGAGLLKPSETLSLTCAVYGGSFSGYYWSWIRQPPGKGLEWIGEINHSGSTNYNPSLKSRVTISVETSKNQFSLKLSSVTAADTAVYYCARDKWTWYFDLWGRGTLVTVSS
VL: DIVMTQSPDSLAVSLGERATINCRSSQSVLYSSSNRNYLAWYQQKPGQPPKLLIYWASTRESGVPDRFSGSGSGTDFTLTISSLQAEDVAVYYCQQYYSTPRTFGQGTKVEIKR
notes: also called 2F8-m1; 3F5 mutant
B2: the Kd was 2.53 nM, the koff was 0.000393 s⁻¹ and the kon came out at 156000 M⁻¹ s⁻¹.
